In the DeepSol protein solubility set:

Assay: soluble on expression in E. coli; label from the status in PepcDB or PDB records
With “MGSDKIHHHHHHMKKASTLPLFERLVQHDRGGPISCHVPGHKQGALFHKDACSYFQSILSLDVTELTGLDDLHDPRGVIAEAQALTARYVGAEATCFLVNGSTVGNLAMILGTLEPGDTVFVQRDSHKSVMNGLAMARVHPIFLSPSYDERTQLPTGITEQTLKQALIEHPNGKALILTYPSYYGVARSIRPLVQMAKEAGLYVLVDEAHGAHFPVGDPFPKQALEQGADVVVQSAHKTLPALTMGSYLHFAHGLHSKIKDSIREQLQILQSSSPSYPILASLDAARGFLEDLTNVKDTLDSIAEMNRRIEQVERLSVATFSPLPTDPLKTVITVEGATGFALQTELEKEGIYSELADDRHVLLMWGLTPLQKVRQEEIIDKMCRATKRLPALEQISKGCPLSLSWQAHTSLDLSYDEQKRYSIEEVAVEEAVGKVSGATVIPYPPGVPLLLKGEKITEPLIAQFQQLQEAGARFQGRPSEQQGLYVFTLEAMT” the “soluble on expression in E. coli” value was “not soluble”.
In the case of “MGSDKIHHHHHHMSFDRPEIYSAPVLQGESPNDDDNTEIIKSFKNFILEFRLDSQFIYRDQLRNNILVKNYSLTVNMEHLIGYNEDIYKKLSDEPSDIIPLFETAITQVAKRISILSRAQSANNNDKDPENTSMDTDSLLLNSLPTFQLILNSNANQIPLRDLDSEHVSKIVRLSGIIISTSVLSSRATYLSIMCRNCRHTTSITINNFNSITGNTVSLPRSCLSTIESESSMANESNIGDESTKKNCGPDPYIIIHESSKFIDQQFLKLQEIPELVPVGEMPRNLTMTCDRYLTNKVIPGTRVTIVGIYSIYNSKNGAGSGRSGGGNGGSGVAIRTPYIKILGIQSDVETSSIWNSVTMFTEEEEEEFLQLSRNPKLYEILTNSIAPSIFGNEDIKKAIVCLLMGGSKKILPDGMRLRGDINVLLLGDPGTAKSQLLKFVEKVSPIAVYTSGKGSSAAGLTASVQRDPMTREFYLEGGAMVLADGGVVCIDEFDKMRDEDRVAIHEAMEQQTISIAKAGITTVLNSRTSVLAAANPIYGRYDDLKSPGDNIDFQTTILSRFDMIFIVKDDHNEERDISIANHVINIHTGNANAMQNQQEENGSEISIEKMKRYITYCRLKCAPRLSPQAAEKLSSNFVTIRKQLLINELESTERSSIPITIRQLEAIIRITESLAKLELSPIAQERHVDEAIRLFQASTMDAASQDPIGGLNQASGTSLSEIRRFEQELKRRLPIGWSTSYQTLRREFVDTHRFSQLALDKALYALEKHETIQLRHQGQNIYRSGV”, the “soluble on expression in E. coli” value is reported as “not soluble”.
In the case of “HHHSSGLTPRGSQMKKIAFGCDHVGFILKHEIVAHLVERGVEVIDKGTWSSERTDYPHYASQVALAVAGGEVDGGILICGTGVGISIAANKFAGIRAVVCSEPYSAQLSRQHNDTNVLAFGSRVVGLELAKMIVDAWLGAQYEGGRHQQRVEAITAIEQRRN”, the “soluble on expression in E. coli” value is reported as “soluble”.
With “MTIQHQFAENLSRLKKEHGLKNHQIAELLNVQTRTVAYYMSGETKPDIEKLIRLATYFHLSIDELVGYVQEDKVWNDLSLKQWLLSLNLRSEEEIAKIKILVDTVETLYPN” the “soluble on expression in E. coli” value was “not soluble”.
In the case of “AGTYNYGEALQKSIMFYEFQRSGDLPADKRDNWRDDSGMKDGSDVGVDLTGGWYDAGDHVKFNLPMSYTSAMLAWSLYEDKDAYDKSGQTKYIMDGIKWANDYFIKCNPTPGVYYYQVGDGGKDHSWWGPAEVMQMERPSFKVDASKPGSAVCASTAASLASAAVVFKSSDPTYAEKCISHAKNLFDMADKAKSDAGYTAASGYYSSSSFYDDLSWAAVWLYLATNDSTYLDKAESYVPNWGKEQQTDIIAYKWGQCWDDVHYGAELLLAKLTNKQLYKDSIEMNLDFWTTGVNGTRVSYTPKGLAWLFQWGSLRHATTQAFLAGVYAEWEGCTPSKVSVYKDFLKSQIDYALGSTGRSFVVGYGVNPPQHPHHRTAHGSWTDQMTSPTYHRHTIYGALVGGPDNADGYTDEINNYVNNEIACDYNAGFTGALAKMYKHSGGDPIPNFKAIEKITNDEVIIKAGLNSTGPNYTEIKAVVYNQTGWPARVTDKISFKYFMDLSEIVAAGIDPLSLVTSSNYSEGKNTKVSGVLPWDVSNNVYYVNVDLTGENIYPGGQSACRREVQFRIAAPQGTTYWNPKNDFSYDGLPTTSTVNTVTNIPVYDNGVKVFGNEP”, the “soluble on expression in E. coli” value is reported as “soluble”.
In the case of “MSLDTDSGENNKDSSIPQGGVTVSPEVLAHRPLIEKYGKEYGIEDYVSYILAIMQVESGGTAEDVMQSSESLGLPPNSLSTEESIKQGVKYFSELLTSAEQQGVDIDSVIQSYNYGGGFLNYVRSHGKKYTYELAEQFSKEKSGGQKADYPNPIAIPVNGGWRYNYGNQFYVQLVSQYLTDTSPTEFDDETVQVIMDEALKYEGFPYVFGGASPTTSFDCSGLIQWVYDKAGISLPRVAQDQYDATQEISMEEAQAGDLIFFHSTYNAGTYVTHVAIYLEGNRFYHAGDPIGYGDLSSRYWQDHLIGARRVIHNEGHHHHHH”, the “soluble on expression in E. coli” value is reported as “soluble”.
For “MGLYEKIVNKEEKISVIGLGYVGMPLAIAFAKYAQVIGFDVDKKKIEIYKSGIDPTKEIGNEAIKNTTVEFTSDETKLKEAKFHIVAVPTPINIDKTPDLTPVESASVIVGRNMARGSYVVYESTVYPGVTEDICIPILERESGLKCGVDFKVGYSPERINPGDKKHTLETIKKIVSAIDDESLDEIAKIYSLVIKAGVHKTSSIKVAEAAKVVENSQRDINIAFMNELAMVFDRMGIDTKEVIDAMNTKWNALGFYPGLVGGHCIGVDPYYFIYQAEKLGYHSQIILSGRKINDGMGEFIANTIIKKLIHVNKVVKKSKVVIFGITYKENCPDTRNSKVVDIIKGLNEYGIEPIVVDPQANREDTKQEYGIELMDIDDVKDADCLVFAVAHDEFKNMAWEQIEKFFKNIDNSEKVIIDVKGIFDKNKIEKLGYCYWRL”, the “soluble on expression in E. coli” value was “soluble”.
With “GMSRDRLYTWAGLWRSPSSSWEALRLEDDQAESQLRAPDERSGLPYQLDYRLRWDADWHLREAVFHVESETGVRKLHLLADGRGHWQDGDGEALPAFDGCLDIDIWPSPFTNTFPIRRLGLADGQRAEIRALYIEAPALEPRSMRQAYTRLDASHYLYENLEGSAFKAVLLVDEQGLVIDYPGLFQRL” the “soluble on expression in E. coli” value was “soluble”.
In the case of “MRGSHHHHHHGSIEGRSAVTCDDYYYGFGCNKFCRPRDDFFGHYACDQNGNKTCMEGWMGPECNRAICRQGCSPKHGSCKLPGDCRCQYGWQGLYCDKCIPHPGCVHGICNEPWQCLCETNWGGQLCDKDLNYCGTHQPCLNGGTCSNTGPDKYQCSCPEGYSGPNCEI”, the “soluble on expression in E. coli” value is reported as “soluble”.
With “DSYYNGHQDGDAIAYLILANKLIHELCPDAITIAEEVSGMPGLALPLADGGYGFDYRLAMNIPDFWIKLIKEHRDEDWNPGDIWYQLTNRRQEEKTISYAESHDQALVGDKTIIFRLIDADMYWYMNKQSCVHSVDRGIALLKMIRLFTATTMNGGYLNFMGNEFGHPEWIDFPREGNGWSYKYARRQWSLADSPFLRYAGLHLFDQDMIAMIRSVESFHKLPLREYWLKREEQVICYGRGDFFFVFNFHPERSYSDYPIPLPAGKYSVAMSTDARKYEGFGRVDEWVEHFTLPDGSKDRFTHEQYLNLYLPARSALVLKLAE” the “soluble on expression in E. coli” value was “not soluble”.
For “GSHMVLTKKKLQDLVREVDPNEQLDEDVEEMLLQIADDFIESVVTAACQLARHRKSSTLEVKDVQLHLERQWNMWI”, the “soluble on expression in E. coli” value was “soluble”.
In the case of “MKRFFLKTILAAFCVYVPAILNTAYACTRIVYQGPNGTIITARSMDWKGEIPANLWIFPRGIERNGEAGSTSVKWKSTYGSVITSSWDIASSDGMNEKGLVGNLLWLVESTYPKFVKDKDKPGLAVSLWLQYVLDNFATVSEAVAFLEKEPFVVASSHIPGTAIFATVHLSISDATGDNAIFEYIGGKLVIHHDRSYVTMTNSPVFDEQLAINTYWKNIPGTVMLPGTNRAADRFVRASYYIDAIPKTDNTRVALPSVFSVIRNCSVPLGISSEAEPNISSTRWRTVSDQKNLVYYFDNVLNPNVVWVEFSKIDFSEKAKVKKLTLANNENYSGEASMNFKAALPFTFAGLD”, the “soluble on expression in E. coli” value is reported as “not soluble”.
With “MSLSAGETDERLRIATTTSLYDTKLLDTLESRFEEKYGIEVDVISGGTGFALEQGRRGDVDLLLVHDKAREYEFIAEGYGTERRCFAYNYFYIVGPADDPAGIKGTNASEAFRMIADAGEKNSNVRFVSRGDNSGTHAREKLLWKSAGIEPSGSWYLESGQGMGATLIMVDEKRAYTLTDMSTYMAFAGNLSLVPLVTESEELLNVYAAIPVSASEHLDDAERFVEFLLSQEGQEIIAGYGKDIYGRALFYPAAGHCTEIGCNATECPGEMVSAFGEGHHHHHH” the “soluble on expression in E. coli” value was “soluble”.
With “MGSDKIHHHHHHMYEEWKIVKREAPILGNDQLIENIWKMKREDSPYDIISLHKVNLIGGGNDAVLILPGTWSSGEQLVTISWNGVHYTIPDYRKSIVLYLARNGFNVYTIDYRTHYVPPFLKDRQLSFTANWGWSTWISDIKEVVSFIKRDSGQERIYLAGESFGGIAALNYSSLYWKNDIKGLILLDGGPTKHGIRPKFYTPEVNSIEEMEAKGIYVIPSRGGPNNPIWSYALANPDMPSPDPKYKSISDFLMDSLYVTGSANPYDYPYSKKEDMFPILASFDPYWPYRLSLERDLKFDYEGILVPTIAFVSERFGIQIFDSKILPSNSEIILLKGYGHLDVYTGENSEKDVNSVVLKWLSQQR” the “soluble on expression in E. coli” value was “not soluble”.
With “MRINFEKANSNHINIIFSWLKEPFIQEFWDNTQAHKDDILNFINGRTEPSSYADGKYVYWIASGNGHPFAMLMTIQETSEDEIDDIKLINLSKTGHSYGIDYMIGDKNYFGIGYGARTLIEFIDFFIKEVDPKADTFLIDPASDNPRAKHVYIKAGF” the “soluble on expression in E. coli” value was “soluble”.
For “MEGIDHLADERNKAEFDVEDMKIVWAGSRHAFEVSDRIARLVASDPVFEKSNRARLSRKELFKSTLRKCAHAFKRIIELRLNEEEAGRLRHFIDQPAYVDLHWGMFVPAIKGQGTEEQQKKWLSLANKMQIIGCYAQTELGHGSNVQGLETTATLDPKTDEFVIHTPTQTASKWWPGGLGKVSTHAVVYARLITNGKDYGIHGFIVQLRSLEDHSPLPNITVGDIGTKMGNGAYNSMDNGFLMFDHVRIPRDQMLMRLSKVTREGEYVPSDVPKQLVYGTMVYVRQTIVADASNALSRAVCIATRYSAVRRQFGAHNGGIETQVIDYKTQQNRLFPLLASAYAFRFVGEWLKWLYTDVTERLAASDFATLPEAHACTAGLKSLTTTATADGIEECRKLCGGHGYLWCSGLPELFAVYVPACTYEGDNVVLQLQVARFLMKTVAQLGSGKVPVGTTAYMGRAAHLLQCRSGVQKAEDWLNPDVVLEAFEARALRMAVTCAKNLSKFENQEQGFQELLADLVEAAIAHCQLIVVSKFIAKLEQDIGGKGVKKQLNNLCYIYALYLLHKHLGDFLSTNCITPKQASLANDQLRSLYTQVRPNAVALVDAFNYTDHYLNSVLGRYDGNVYPKLFEEALKDPLNDSVVPDGYQEYLRPVLQQQL”, the “soluble on expression in E. coli” value was “soluble”.
In the case of “MGAIAPSSNILAKAMVDAIDFEVAKCIVELGPGTGSFTKEIMKRKKKRTTFILIEINEVFFKKLQKQYEDDASVVVIHGSAENIQRYVEELQIKGVDYVLSGLPFTSLPKEESSRILNNVMESLRENGRFITFQYSLVKKGFIEDFFPDIQLKKVWFNFPPAYVFSCKKSLEHHHHHH”, the “soluble on expression in E. coli” value is reported as “soluble”.
In the case of “MGSDKIHHHHHHMETLFRSFRTQLEHTSTEVVRFLHDQIAWDSRLVAILGARGVGKTTLLLQHIKLYDREDESLYVTADDFYFTKYRLFDMAYQFYNLGGKKLYIDEIHKYKDWSREVKNIYDQIPGLQVIYTGSSILDLEKGGADLSRRKVEYRLPGLSFREYLNISQGWQLPSYSLEEILAGKVEFPYKEARPLKLFNDYLSTGYYPFFQDTEYLLRLRSVINQMVESDIPIFADMTVASAVKLKKLLYVLAQSVPFKPNYTKLARDLDISRNVLPDYMSYLEKAGLVNLLREKAQGLKLLEKVEKIYLNNTNLAYALSEQVPDIGSVRETVFLSWMRVVCFVTSSAISDFEIDGRTFEIGGKNKTRQQIKQAADGYVVKDDIEYAFRNMIPLWMFGFIY”, the “soluble on expression in E. coli” value is reported as “not soluble”.
With “MFTGIINHCGEIRSMEALPDHTVLSIDTQFSDLQLGESIAIDGICVTVTQKKLGSFSCDLSPETLACTKARDYKIGSRINLERALRLTDRLGGHFVSGHVDQTAILESQKKHAEFIQMDFKNSSEERWNYLIPKGSVAVNGVSLTVNSVAGDYFSVMLIPHTLEHTNLNDLKEGQIVNIEFDLITKIIVQKTREALSHAKTI” the “soluble on expression in E. coli” value was “soluble”.
